Results reported in US8647828B2, “Intracellular targeting of molecules via syndecan-4” (Szilak Laboratories Bioinformatics & Molecule-Design Ltd., priority 2007, dated 2014).
Ends that are not written are not given here.

What was measured:
[1] = system: syndecan-4; assay: FGF2 stimulated syndecan-4 endocytosis, time-lapse confocal microscopy; format: cell-based, human; details: HT1080, 22° C., 0, 10 and 60 minutes
[2] = molecular target: T1, syndecan-4 (Homo sapiens, UniProt P31431); assay: Syndecan-4 mediated internalization and nuclear targeting of FITC labeled basic peptides (immunofluorescent microscopy); format: cell-based; details: 10 μM FITC labeled peptide
T1 construct: comprising the full, human syndecan-4 cDNA driven by cytomegalovirus (CMV) promoter; expressed in transfected cells; host or cells: HT1080 fibrosarcoma, MCF7 adenocarcinoma
T1 sequence (P31431 19-198): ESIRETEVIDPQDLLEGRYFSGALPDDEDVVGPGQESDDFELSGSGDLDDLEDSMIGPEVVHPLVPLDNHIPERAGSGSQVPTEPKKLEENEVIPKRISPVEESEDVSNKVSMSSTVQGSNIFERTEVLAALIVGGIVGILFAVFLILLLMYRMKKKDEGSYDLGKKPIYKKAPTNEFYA
Excerpt: Green fluorescent protein (GFP, Clontech; Palo Alto, Calif., USA) labeled fusion proteins were used to follow the process of the endocytosis of syndecan-4 in vivo. GFP was inserted into the syndecan-4 extracellular region in the HuSynd4 pCMV construct, comprising the full, human syndecan-4 cDNA driven by cytomegalovirus (CMV) promoter by using techniques well-known by the person skilled in the art. To avoid possible artifacts, every experiment was repeated with all of the constructs; HuSynd4 pCMV and the GFP chimeras. To reveal the role and the importance of phosphorylation stage of Ser179, mutations were introduced into the cytoplasmic tail region of syndecan-4-GFP chimeras. […]
Syndecan-4 is able to carry the agents bound on the cell surface into the cell. […] The cells were permeabilized with 0.1% triton X-100 (Sigma, St. Louis, Mo., USA) in PBS, and syndecan-4 was visualized with anti-syndecan-4 ectodomain serum (Zymed, San Francisco, Calif., USA), monitored by immunofluorescent microscopy. […] The labeled molecules were detected in distinct compartments of cytoplasm, which indicate that the syndecan-4 was able to internalize and traffic the attached agents, like antibodies, and basic peptides along, holding the specifically bound agents intact throughout the whole process. […]

Substance | syndecan-4 endocytosis [1] | nuclear accumulation of labeled oligopeptide, colocalized with syndecan-4 [2] | triggering of syndecan-4 endocytosis and penetration into the cell ([2]; incubated for an hour)
FGF2: basic fibroblast growth factor, stimulator of syndecan-4 endocytosis | stimulated | – | –
KRKRKR (also: FITC label) [6 amino acid basic oligopeptide, fluorescently (FITC) labeled] | – | accumulated in the nucleus | able to trigger the endocytosis, and penetrate
